The values below come from US20140087995A1 (published 2014).

For the assay, the target named is T1, human amylin receptor (human, UniProt P30988 25-474; O60896 24-148, limits assumed).
T1 construct: whole, on cells; Calcitonin receptor plus RAMP-3 gives the amylin 3(a) receptor; membranes of Amylin 3(a)/CRE-luc cells were used; also called hAmylin-R; hAmylinR
T1 sequence (looked up) 1: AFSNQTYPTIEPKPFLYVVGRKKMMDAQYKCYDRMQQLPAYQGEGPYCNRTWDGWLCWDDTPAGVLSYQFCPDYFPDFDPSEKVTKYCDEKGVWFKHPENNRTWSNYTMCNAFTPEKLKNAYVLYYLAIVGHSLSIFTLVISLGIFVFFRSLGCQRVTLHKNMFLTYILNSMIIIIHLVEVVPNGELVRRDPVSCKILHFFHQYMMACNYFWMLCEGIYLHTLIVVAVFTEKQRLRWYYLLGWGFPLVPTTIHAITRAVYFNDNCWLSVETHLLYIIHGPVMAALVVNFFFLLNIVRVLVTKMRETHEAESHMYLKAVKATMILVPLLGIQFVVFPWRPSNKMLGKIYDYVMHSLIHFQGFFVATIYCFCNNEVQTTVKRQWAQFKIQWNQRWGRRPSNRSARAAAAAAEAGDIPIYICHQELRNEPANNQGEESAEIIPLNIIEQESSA
T1 sequence (looked up) 2: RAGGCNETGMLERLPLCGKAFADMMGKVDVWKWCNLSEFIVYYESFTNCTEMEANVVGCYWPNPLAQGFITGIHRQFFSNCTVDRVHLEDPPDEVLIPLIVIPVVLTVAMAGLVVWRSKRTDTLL
Put plainly: SPA competition binding, displacement of 125I-rat amylin from membranes with human amylin 3(a) receptor (Assay V). The procedure:
The binding assay was performed using scintillation proximity assay (SPA) beads (RPNQ0001) from PerkinElmer and cell membranes from the Amylin 3(a)/CRE-luc cells (as described in Assay (II)) were used. Membranes were prepared in the following way; the cells were rinsed with PBS and incubated with Versene for approximately 5 min before harvesting. The cells were flushed with PBS and the cell-suspension was centrifuged for 5 min at 1000 rpm. Cells were homogenized (ultrathurrax) in a buffer containing 20 mM Na-HEPES and 10 mM EDTA (pH 7.4) and centrifuged at 20.000 rpm for 15 min. The resulting pellet was resuspended, homogenized and centrifuged (20.000 rpm, 15 min) in a buffer containing 20 mM Na-HEPES and 0.1 mM EDTA (pH 7.4, buffer 2). The resulting pellet was resuspended in buffer 2 and protein concentration was measured (BCA protein Assay, Pierce). The homogenate was kept cold during the whole procedure. The membranes were kept at −80° C. until use. The assay was performed in a 384 well Optiplate (PerkinElmer) in a total volume of 40 ul. Membranes were mixed with SPA beads. Final concentration of membranes 35 ng/μL final and SPA beads was 0.05 mg/well. Test-compounds were dissolved in DMSO and further diluted in assay buffer (50 mM Hepes, pH 7.4, 1 mM CaCl2, 5 mM MgCl₂, 0.1% OA and 0.02% Tween20). […] The final mixture was incubated with shaking at 400 rpm for 120 min at 25° C. prior to centrifugation (1500 rpm, 10 min). Samples were analyzed on TopCounter™ (Packard). The IC₅₀ was calculated using (one site binding competition analysis) GraphPad Prism5 as a measure of receptor affinity.
A general note: In a radioligand displacement assay an active substance lowers the binding of a labelled ligand.

Numbered stars: 1 amine (or outer) side, 2 acyl side, 3 side chain; on linkers, the order of the positions; unused ones are H or OH. Bridge positions count the residues as written; N and C are the ends. * marks the point of attachment. C20 diacid = O=C(O)CCCCCCCCCCCCCCCCCCC(=O)*; γGlu = O=C(O)[C@H](CCC(=O)[*:2])N[*:1]

B1: N^α1-[(4S)-4-carboxy-4-(19-carboxynonadecanoylamino)butanoyl]-[Glu14,Arg17,Pro21,Pro27,Pro31]-h-amylin (peptide)
peptide: {C20 diacid-γGlu}-KCNTATCATQRLAEFLRHSSPNFGAIPSSTPVGSNTY-NH2
modifications: disulfide 2-7
SMILES: CC[C@H](C)[C@H](NC(=O)[C@H](C)NC(=O)CNC(=O)[C@H](Cc1ccccc1)NC(=O)[C@H](CC(N)=O)NC(=O)[C@@H]1CCCN1C(=O)[C@H](CO)NC(=O)[C@H](CO)NC(=O)[C@H](Cc1c[nH]cn1)NC(=O)[C@H](CCCNC(=N)N)NC(=O)[C@H](CC(C)C)NC(=O)[C@H](Cc1ccccc1)NC(=O)[C@H](CCC(=O)O)NC(=O)[C@H](C)NC(=O)[C@H](CC(C)C)NC(=O)[C@H](CCCNC(=N)N)NC(=O)[C@H](CCC(N)=O)NC(=O)[C@@H](NC(=O)[C@H](C)NC(=O)[C@@H]1CSSC[C@H](NC(=O)[C@H](CCCCN)NC(=O)CC[C@H](NC(=O)CCCCCCCCCCCCCCCCCCC(=O)O)C(=O)O)C(=O)N[C@@H](CC(N)=O)C(=O)N[C@@H]([C@@H](C)O)C(=O)N[C@@H](C)C(=O)N[C@@H]([C@@H](C)O)C(=O)N1)[C@@H](C)O)C(=O)N1CCC[C@H]1C(=O)N[C@@H](CO)C(=O)N[C@@H](CO)C(=O)N[C@H](C(=O)N1CCC[C@H]1C(=O)N[C@H](C(=O)NCC(=O)N[C@@H](CO)C(=O)N[C@@H](CC(N)=O)C(=O)N[C@H](C(=O)N[C@@H](Cc1ccc(O)cc1)C(N)=O)[C@@H](C)O)C(C)C)[C@@H](C)O
notes: also called 14E, 17R, 21P, 27P, 31P
In general, IC50 refers to the concentration needed to halve the response being measured. A low value points to higher potency. Turning to B1, the IC50 was 0.204 nM.

B2: N^α1-[(4S)-4-carboxy-4-(19-carboxynonadecanoylamino)butanoyl]-[Glu14,Arg17,Pro21,Pro27,Pro34]-h-amylin (peptide)
peptide: {C20 diacid-γGlu}-KCNTATCATQRLAEFLRHSSPNFGAIPSSTNVGPNTY-NH2
modifications: disulfide 2-7
SMILES: CC[C@H](C)[C@H](NC(=O)[C@H](C)NC(=O)CNC(=O)[C@H](Cc1ccccc1)NC(=O)[C@H](CC(N)=O)NC(=O)[C@@H]1CCCN1C(=O)[C@H](CO)NC(=O)[C@H](CO)NC(=O)[C@H](Cc1c[nH]cn1)NC(=O)[C@H](CCCNC(=N)N)NC(=O)[C@H](CC(C)C)NC(=O)[C@H](Cc1ccccc1)NC(=O)[C@H](CCC(=O)O)NC(=O)[C@H](C)NC(=O)[C@H](CC(C)C)NC(=O)[C@H](CCCNC(=N)N)NC(=O)[C@H](CCC(N)=O)NC(=O)[C@@H](NC(=O)[C@H](C)NC(=O)[C@@H]1CSSC[C@H](NC(=O)[C@H](CCCCN)NC(=O)CC[C@H](NC(=O)CCCCCCCCCCCCCCCCCCC(=O)O)C(=O)O)C(=O)N[C@@H](CC(N)=O)C(=O)N[C@@H]([C@@H](C)O)C(=O)N[C@@H](C)C(=O)N[C@@H]([C@@H](C)O)C(=O)N1)[C@@H](C)O)C(=O)N1CCC[C@H]1C(=O)N[C@@H](CO)C(=O)N[C@@H](CO)C(=O)N[C@H](C(=O)N[C@@H](CC(N)=O)C(=O)N[C@H](C(=O)NCC(=O)N1CCC[C@H]1C(=O)N[C@@H](CC(N)=O)C(=O)N[C@H](C(=O)N[C@@H](Cc1ccc(O)cc1)C(N)=O)[C@@H](C)O)C(C)C)[C@@H](C)O
notes: also called 14E, 17R, 21P, 27P, 34P
Consider B2, for which the concentration for half-maximal inhibition (IC50) stood at 0.1 nM.

B3: N^α1-[(4S)-4-carboxy-4-(19-carboxynonadecanoylamino)butanoyl]-[Glu14,Arg17,Pro21,Pro27,Pro37]-h-amylin (peptide)
peptide: {C20 diacid-γGlu}-KCNTATCATQRLAEFLRHSSPNFGAIPSSTNVGSNTP-NH2
modifications: disulfide 2-7
SMILES: CC[C@H](C)[C@H](NC(=O)[C@H](C)NC(=O)CNC(=O)[C@H](Cc1ccccc1)NC(=O)[C@H](CC(N)=O)NC(=O)[C@@H]1CCCN1C(=O)[C@H](CO)NC(=O)[C@H](CO)NC(=O)[C@H](Cc1c[nH]cn1)NC(=O)[C@H](CCCNC(=N)N)NC(=O)[C@H](CC(C)C)NC(=O)[C@H](Cc1ccccc1)NC(=O)[C@H](CCC(=O)O)NC(=O)[C@H](C)NC(=O)[C@H](CC(C)C)NC(=O)[C@H](CCCNC(=N)N)NC(=O)[C@H](CCC(N)=O)NC(=O)[C@@H](NC(=O)[C@H](C)NC(=O)[C@@H]1CSSC[C@H](NC(=O)[C@H](CCCCN)NC(=O)CC[C@H](NC(=O)CCCCCCCCCCCCCCCCCCC(=O)O)C(=O)O)C(=O)N[C@@H](CC(N)=O)C(=O)N[C@@H]([C@@H](C)O)C(=O)N[C@@H](C)C(=O)N[C@@H]([C@@H](C)O)C(=O)N1)[C@@H](C)O)C(=O)N1CCC[C@H]1C(=O)N[C@@H](CO)C(=O)N[C@@H](CO)C(=O)N[C@H](C(=O)N[C@@H](CC(N)=O)C(=O)N[C@H](C(=O)NCC(=O)N[C@@H](CO)C(=O)N[C@@H](CC(N)=O)C(=O)N[C@H](C(=O)N1CCC[C@H]1C(N)=O)[C@@H](C)O)C(C)C)[C@@H](C)O
notes: also called 14E, 17R, 21P, 27P, 37P
With B3, the IC50 is 0.072 nM.

B4: N^α1-[(4S)-4-carboxy-4-(19-carboxynonadecanoylamino)butanoyl]-[Glu14,Arg17,Pro21,Pro27]-h-amylin (peptide)
peptide: KCNTATCATQRLAEFLRHSSPNFGAIPSSTNVGSNTY
modifications: C20 diacid-gGlu on the alpha amino group of the N-terminal residue; disulfide Cys2-Cys7 and C-terminal amide as in human amylin
notes: also called 14E, 17R, 21P, 27P
Molecule B4 gave an IC50 of 0.143 nM.

B5: N^α1N^α1-[(4S)-4-carboxy-4-(19-carboxynonadecanoylamino)butanoyl]-[Glu14,Arg17,Pro21,Pro27,Glu35]-h-amylin (peptide)
peptide: {C20 diacid-γGlu}-KCNTATCATQRLAEFLRHSSPNFGAIPSSTNVGSETY-NH2
modifications: disulfide 2-7
SMILES: CC[C@H](C)[C@H](NC(=O)[C@H](C)NC(=O)CNC(=O)[C@H](Cc1ccccc1)NC(=O)[C@H](CC(N)=O)NC(=O)[C@@H]1CCCN1C(=O)[C@H](CO)NC(=O)[C@H](CO)NC(=O)[C@H](Cc1c[nH]cn1)NC(=O)[C@H](CCCNC(=N)N)NC(=O)[C@H](CC(C)C)NC(=O)[C@H](Cc1ccccc1)NC(=O)[C@H](CCC(=O)O)NC(=O)[C@H](C)NC(=O)[C@H](CC(C)C)NC(=O)[C@H](CCCNC(=N)N)NC(=O)[C@H](CCC(N)=O)NC(=O)[C@@H](NC(=O)[C@H](C)NC(=O)[C@@H]1CSSC[C@H](NC(=O)[C@H](CCCCN)NC(=O)CC[C@H](NC(=O)CCCCCCCCCCCCCCCCCCC(=O)O)C(=O)O)C(=O)N[C@@H](CC(N)=O)C(=O)N[C@@H]([C@@H](C)O)C(=O)N[C@@H](C)C(=O)N[C@@H]([C@@H](C)O)C(=O)N1)[C@@H](C)O)C(=O)N1CCC[C@H]1C(=O)N[C@@H](CO)C(=O)N[C@@H](CO)C(=O)N[C@H](C(=O)N[C@@H](CC(N)=O)C(=O)N[C@H](C(=O)NCC(=O)N[C@@H](CO)C(=O)N[C@@H](CCC(=O)O)C(=O)N[C@H](C(=O)N[C@@H](Cc1ccc(O)cc1)C(N)=O)[C@@H](C)O)C(C)C)[C@@H](C)O
notes: also called 14E, 17R, 21P, 27P, 35E
With B5, the concentration for half-maximal inhibition (IC50) came out at 0.794 nM.

B6: N^α1-[(4S)-4-carboxy-4-[[(4S)-4-carboxy-4-(19-carboxynonadecanoylamino)butanoyl]amino]butanoyl]-[Glu14,Arg17,Pro21,Pro27,Pro37]-h-amylin (peptide)
peptide: {C20 diacid-γGlu-γGlu}-KCNTATCATQRLAEFLRHSSPNFGAIPSSTNVGSNTP-NH2
modifications: disulfide 2-7
SMILES: CC[C@H](C)[C@H](NC(=O)[C@H](C)NC(=O)CNC(=O)[C@H](Cc1ccccc1)NC(=O)[C@H](CC(N)=O)NC(=O)[C@@H]1CCCN1C(=O)[C@H](CO)NC(=O)[C@H](CO)NC(=O)[C@H](Cc1c[nH]cn1)NC(=O)[C@H](CCCNC(=N)N)NC(=O)[C@H](CC(C)C)NC(=O)[C@H](Cc1ccccc1)NC(=O)[C@H](CCC(=O)O)NC(=O)[C@H](C)NC(=O)[C@H](CC(C)C)NC(=O)[C@H](CCCNC(=N)N)NC(=O)[C@H](CCC(N)=O)NC(=O)[C@@H](NC(=O)[C@H](C)NC(=O)[C@@H]1CSSC[C@H](NC(=O)[C@H](CCCCN)NC(=O)CC[C@H](NC(=O)CC[C@H](NC(=O)CCCCCCCCCCCCCCCCCCC(=O)O)C(=O)O)C(=O)O)C(=O)N[C@@H](CC(N)=O)C(=O)N[C@@H]([C@@H](C)O)C(=O)N[C@@H](C)C(=O)N[C@@H]([C@@H](C)O)C(=O)N1)[C@@H](C)O)C(=O)N1CCC[C@H]1C(=O)N[C@@H](CO)C(=O)N[C@@H](CO)C(=O)N[C@H](C(=O)N[C@@H](CC(N)=O)C(=O)N[C@H](C(=O)NCC(=O)N[C@@H](CO)C(=O)N[C@@H](CC(N)=O)C(=O)N[C@H](C(=O)N1CCC[C@H]1C(N)=O)[C@@H](C)O)C(C)C)[C@@H](C)O
notes: as for B3
In turn, B6 displayed an IC50 of 0.196 nM. Against the preceding molecule, the IC50 is about 4.1-fold lower.
